In article PMC12416549 (2024):
Residue numbers refer to the chain shown, from its start. Names may count otherwise.

T1: TNFR1 (Homo sapiens, UniProt P19438)
T1 chain: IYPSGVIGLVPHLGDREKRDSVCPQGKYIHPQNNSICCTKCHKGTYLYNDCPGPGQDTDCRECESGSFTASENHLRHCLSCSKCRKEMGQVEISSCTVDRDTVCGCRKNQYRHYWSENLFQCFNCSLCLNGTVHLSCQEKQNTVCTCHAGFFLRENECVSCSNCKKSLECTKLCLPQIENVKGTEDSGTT

B1: E95V (designed binder)
chain: MTLQELLREEALRRAEAEAFRYALELLAEKFPEQKEYLLDLAEEIESQIRSLSGVDVEDVRKFLDKEWAWVKELLAEHPAELAEVEAARAARLAVLRAEVEAKVAA
B2: L26G (designed binder)
chain: B1 chain with L26G, V95E
B3: E44F (designed binder)
chain: B1 chain with E44F, V95E
B4: E101W (designed binder)
chain: B1 chain with V95E, E101W
B5: L38T (designed binder)
chain: B1 chain with L38T, V95E
B6: E46T (designed binder)
chain: B1 chain with E46T, V95E
B7: L7S (designed binder)
chain: B1 chain with L7S, V95E
B8: R14C (designed binder)
chain: B1 chain with R14C, V95E
B9: K62R (designed binder)
chain: B1 chain with K62R, V95E
B10: L27E (designed binder)
chain: B1 chain with L27E, V95E
B11: M1D (designed binder)
chain: B1 chain with M1D, V95E
B12: A102Y (designed binder)
chain: B1 chain with V95E, A102Y
B13: K30L (designed binder)
chain: B1 chain with K30L, V95E
B14: L6C (designed binder)
chain: B1 chain with L6C, V95E
B15: F31Y (designed binder)
chain: B1 chain with F31Y, V95E
B16: R14Q (designed binder)
chain: B1 chain with R14Q, V95E
B17: Y37S (designed binder)
chain: B1 chain with Y37S, V95E
B18: K62L (designed binder)
chain: B1 chain with K62L, V95E
B19: E99H (designed binder)
chain: B1 chain with V95E, E99H
B20: P79N (designed binder)
chain: B1 chain with P79N, V95E
B21: E81I (designed binder)
chain: B1 chain with E81I, V95E
B22: E29Y (designed binder)
chain: B1 chain with E29Y, V95E
B23: L93Y (designed binder)
chain: B1 chain with L93Y, V95E
B24: V85K (designed binder)
chain: B1 chain with V85K, V95E
B25: A11W (designed binder)
chain: B1 chain with A11W, V95E
B26: E16H (designed binder)
chain: B1 chain with E16H, V95E
B27: F63W (designed binder)
chain: B1 chain with F63W, V95E
B28: A91K (designed binder)
chain: B1 chain with A91K, V95E
B29: L41R (designed binder)
chain: B1 chain with L41R, V95E
B30: I49T (designed binder)
chain: B1 chain with I49T, V95E
B31: E25H (designed binder)
chain: B1 chain with E25H, V95E
B32: E33N (designed binder)
chain: B1 chain with E33N, V95E
B33: R50K (designed binder)
chain: B1 chain with R50K, V95E
B34: L75G (designed binder)
chain: B1 chain with L75G, V95E
B35: K35I (designed binder)
chain: B1 chain with K35I, V95E
B36: A19Q (designed binder)
chain: B1 chain with A19Q, V95E
B37: K62C (designed binder)
chain: B1 chain with K62C, V95E
B38: R61H (designed binder)
chain: B1 chain with R61H, V95E
B39: R8Y (designed binder)
chain: B1 chain with R8Y, V95E
B40: A15H (designed binder)
chain: B1 chain with A15H, V95E
B41: G54Q (designed binder)
chain: B1 chain with G54Q, V95E
B42: R97I (designed binder)
chain: B1 chain with V95E, R97I
B43: A76H (designed binder)
chain: B1 chain with A76H, V95E
B44: W70R (designed binder)
chain: B1 chain with W70R, V95E
B45: A17C (designed binder)
chain: B1 chain with A17C, V95E
B46: R97K (designed binder)
chain: B1 chain with V95E, R97K
B47: R14V (designed binder)
chain: B1 chain with R14V, V95E
B48: L26S (designed binder)
chain: B1 chain with L26S, V95E
B49: L41Y (designed binder)
chain: B1 chain with L41Y, V95E
B50: V57D (designed binder)
chain: B1 chain with V57D, V95E
B51: P79L (designed binder)
chain: B1 chain with P79L, V95E
B52: A94M (designed binder)
chain: B1 chain with A94M, V95E
B53: L7M (designed binder)
chain: B1 chain with L7M, V95E
B54: E86P (designed binder)
chain: B1 chain with E86P, V95E
B55: L12E (designed binder)
chain: B1 chain with L12E, V95E
B56: K35R (designed binder)
chain: B1 chain with K35R, V95E
B57: Y22E (designed binder)
chain: B1 chain with Y22E, V95E
B58: F31E (designed binder)
chain: B1 chain with F31E, V95E
B59: R50S (designed binder)
chain: B1 chain with R50S, V95E

Biological target: T1, TNFR1
Assay: yeast display SC50

apparent Kd (screen) [nM] | Binder
0.49 | B1
0.446 | B2
16.7 | B3
0.49 | B4
26.9 | B5
0.653 | B6
13.8 | B7
0.539 | B8
0.539 | B9
0.869 | B10
0.446 | B11
0.653 | B12
0.539 | B13
2.05 | B14
0.593 | B15
0.593 | B16
12.5 | B17
0.653 | B18
0.49 | B19
0.539 | B20

apparent Kd (screen) [nM] | Binder
0.49 | B21
0.539 | B22
0.539 | B23
0.653 | B24
0.405 | B25
0.718 | B26
0.869 | B27
0.49 | B28
15.2 | B29
0.539 | B30
0.718 | B31
0.539 | B32
0.539 | B33
1.4 | B34
2.48 | B35
0.446 | B36
0.49 | B37
1.4 | B38
1.05 | B39
0.539 | B40

apparent Kd (screen) [nM] | Binder
1.05 | B41
0.539 | B42
0.79 | B43
12.5 | B44
0.446 | B45
0.539 | B46
0.956 | B47
0.49 | B48
0.718 | B49
3.99 | B50
0.718 | B51
0.718 | B52
2.48 | B53
4.83 | B54
1.27 | B55
0.49 | B56
0.304 | B57
0.49 | B58
0.653 | B59
